# From patent US11306156
# Legend:
# [1] = target: tissue factor (TF) antigen (UniProt P13726); assay: SPR, Fab captured on anti-penta His, TF injected
# [2] = target: tissue factor (TF) antigen (UniProt P13726); assay: SPR, Fab captured on anti-penta His surface, TF as analyte, 1:1 fit
# [3] = target: tissue factor (TF) antigen (UniProt P13726); assay: SPR, Fab captured on anti-penta-His, TF as analyte, 1:1 fit
# [4] = target: tissue factor (TF) (human) (UniProt P13726); assay: SPR (ProteOn), Fab captured on anti-penta His, TF analyte, 1:1 fit
# tissue factor (TF) (human), sequence (P13726 33-251 limits assumed): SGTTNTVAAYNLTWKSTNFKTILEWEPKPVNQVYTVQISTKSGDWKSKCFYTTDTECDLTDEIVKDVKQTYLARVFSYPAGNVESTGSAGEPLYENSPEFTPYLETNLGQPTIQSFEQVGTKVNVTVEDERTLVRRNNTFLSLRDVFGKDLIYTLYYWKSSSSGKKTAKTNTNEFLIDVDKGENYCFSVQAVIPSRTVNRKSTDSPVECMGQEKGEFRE
# tissue factor (TF) antigen, sequence (P13726 33-251 limits assumed): as above
substance,measurement,setting,value
D3H44 Fab heterodimer H L124E_H172T / L V133G_N137K_S174R_S176R (H1L1 Fab of LCCA Set # 9121),Change in KD with respect to wild type (-(log(KD design) - log(KD wt))),[1],0.08
same,Kd,[1],0.13 nM
D3H44 Fab heterodimer H L124E_L143D_K145M / L Q124K_V133G_Q160K_S176R (H1L1 Fab of LCCA Set # 9170),Change in KD with respect to wild type (-(log(KD design) - log(KD wt))),[1],-0.24
same,Kd,[1],0.27 nM
"D3H44 Fab heterodimer H L124E_L143D_K145M / L Q124K_V133G_S176R_T178K (H1L1 Fab of LCCA Set # 9178, 9179)",Change in KD with respect to wild type (-(log(KD design) - log(KD wt))),[1],-0.15
same,Kd,[1],0.22 nM
"D3H44 Fab heterodimer H L124E_L143D_K145T / L Q124K_V133G_S176R_T178K (H1L1 Fab of LCCA Set # 9220, 9216)",Change in KD with respect to wild type (-(log(KD design) - log(KD wt))),[1],-0.08
same,Kd,[1],0.19 nM
"D3H44 Fab heterodimer H L124E_L143D_K145T / L Q124K_V133G_S176R_T178R (H1L1 Fab of LCCA Set # 9229, 9225, 9228)",Change in KD with respect to wild type (-(log(KD design) - log(KD wt))),[1],-0.02
same,Kd,[1],0.16 nM
D3H44 Fab heterodimer H L124E_L143E_K145M / L Q124K_V133G_Q160K_S176R (H1L1 Fab of LCCA Set # 9247),Change in KD with respect to wild type (-(log(KD design) - log(KD wt))),[1],-0.26
same,Kd,[1],0.28 nM
D3H44 Fab heterodimer H L124E_L143E_K145M / L Q124K_V133G_S176R_T178R (H1L1 Fab of LCCA Set # 9270),Change in KD with respect to wild type (-(log(KD design) - log(KD wt))),[1],-0.29
same,Kd,[1],0.31 nM
D3H44 Fab heterodimer H L124E_L143E_K145T / L Q124K_V133G_Q160K_S176R (H1L1 Fab of LCCA Set # 9275),Change in KD with respect to wild type (-(log(KD design) - log(KD wt))),[1],-0.12
same,Kd,[1],0.2 nM
"D3H44 Fab heterodimer, H1L1 of LCCA Set # 9074 (H1 H172R_Q179K; L1 Q124E_Q160E_T180E)",Change in KD with respect to wild type (-(log(KD design) - log(KD wt))),[2],-0.01
same,Kd,[2],0.16 nM
"D3H44 Fab heterodimer, H1L1 of LCCA Set # 9099 (H1 L124A_Q179K; L1 Q124E_V133W_S176T_T178L_T180E)",Change in KD with respect to wild type (-(log(KD design) - log(KD wt))),[2],-0.09
same,Kd,[2],0.19 nM
"D3H44 Fab heterodimer, H1L1 of LCCA Set # 9754 (H1 L45P_L143E_K145T_Q179E; L1 P44F_Q124R_Q160K_T178R)",Change in KD with respect to wild type (-(log(KD design) - log(KD wt))),[2],-0.28
same,Kd,[2],0.3 nM
"D3H44 Fab heterodimer, H1L1 of LCCA Set # 9760 (H1 Q179K; L1 Q124E_Q160E_T180E)",Change in KD with respect to wild type (-(log(KD design) - log(KD wt))),[2],-0.31
same,Kd,[2],0.32 nM
"D3H44 Fab heterodimer, H1L1 of LCCA Set # 9817 (H1 Q39E_L143E_K145T; L1 Q38R_Q124R_Q160K_T178R)",Change in KD with respect to wild type (-(log(KD design) - log(KD wt))),[2],-0.05
same,Kd,[2],0.18 nM
"D3H44 Fab heterodimer, H1L1 of LCCA Set # 9818 (H1 Q39E_L143E_K145T_H172R; L1 Q38R_Q124R_Q160K_T178R)",Change in KD with respect to wild type (-(log(KD design) - log(KD wt))),[2],-0.07
same,Kd,[2],0.18 nM
"D3H44 Fab heterodimer, H1L1 of LCCA Set # 9819 (H1 Q39E_L143E_K145T_H172R_Q179E; L1 Q38R_Q124R_Q160K_T178R)",Change in KD with respect to wild type (-(log(KD design) - log(KD wt))),[2],0.03
same,Kd,[2],0.15 nM
"D3H44 Fab heterodimer, H1L1 of LCCA Set # 9820 (H1 Q39E_L143E_K145T_Q179E; L1 Q38R_Q124R_Q160K_T178R)",Change in KD with respect to wild type (-(log(KD design) - log(KD wt))),[2],-0.1
same,Kd,[2],0.2 nM
"D3H44 Fab heterodimer, H1L1 of LCCA Set # 9822 (H1 Q39R_D146G_Q179K; L1 Q38E_Q124E_Q160E_T180E)",Change in KD with respect to wild type (-(log(KD design) - log(KD wt))),[2],0.17
same,Kd,[2],0.11 nM
"D3H44 Fab heterodimer, H1L1 of LCCA Set # 9823 (H1 Q39R_H172R_Q179K; L1 Q38E_Q124E_Q160E_T180E)",Change in KD with respect to wild type (-(log(KD design) - log(KD wt))),[2],-0.18
same,Kd,[2],0.24 nM
"D3H44 Fab heterodimer, H1L1 of LCCA Sets # 9076, 9077 and 9078 (H1 H172T_Q179K; L1 Q124E_N137K_Q160E_S174R_T180E)",Change in KD with respect to wild type (-(log(KD design) - log(KD wt))),[2],0.01
same,Kd,[2],0.15 nM
"D3H44 Fab heterodimer, H1L1 of LCCA Sets # 9090, 9091 and 9092 (H1 L124A_L143F_Q179K; L1 Q124E_V133W_S176T_T178E_T180E)",Change in KD with respect to wild type (-(log(KD design) - log(KD wt))),[2],-0.02
same,Kd,[2],0.16 nM
"D3H44 Fab heterodimer, H1L1 of LCCA Sets # 9094, 9095 and 9096 (H1 L124A_L143F_Q179K; L1 Q124E_V133W_S176T_T178L_T180E)",Change in KD with respect to wild type (-(log(KD design) - log(KD wt))),[2],-0.04
same,Kd,[2],0.17 nM
"D3H44 Fab heterodimer, H1L1 of LCCA Sets # 9558 and 9559 (H1 L124W_L143E_K145T_Q179E; L1 Q124K_V133A_S176T_T178R)",Change in KD with respect to wild type (-(log(KD design) - log(KD wt))),[2],-0.24
same,Kd,[2],0.27 nM
"D3H44 Fab heterodimer, H1L1 of LCCA Sets # 9560 and 9561 (H1 L124W_L143E_K145T_Q179E; L1 Q124R_V133A_S176T_T178R)",Change in KD with respect to wild type (-(log(KD design) - log(KD wt))),[2],-0.13
same,Kd,[2],0.21 nM
"D3H44 Fab heterodimer, H1L1 of LCCA Sets # 9752 and 10552 (H1 L45P_L143E_K145T_H172R; L1 P44F_Q124R_Q160K_T178R)",Change in KD with respect to wild type (-(log(KD design) - log(KD wt))),[2],-0.27
same,Kd,[2],0.29 nM
"D3H44 Fab heterodimer, H L124E_L143D_K145M / L Q124K_V133G_S176R_T178K",Change in KD with respect to wild type (-(log(KD design) - log(KD wt))),[3],-0.15
same,Kd,[3],0.22 nM
"D3H44 Fab heterodimer, H L124E_L143D_K145T / L Q124K_V133G_S176R_T178K",Change in KD with respect to wild type (-(log(KD design) - log(KD wt))),[3],-0.08
same,Kd,[3],0.19 nM
"D3H44 Fab heterodimer, H L124E_L143D_K145T / L Q124K_V133G_S176R_T178R",Change in KD with respect to wild type (-(log(KD design) - log(KD wt))),[3],-0.02
same,Kd,[3],0.15 nM
"D3H44 Fab heterodimer, H L124E_L143E_K145M / L Q124K_V133G_S176R_T178K",Change in KD with respect to wild type (-(log(KD design) - log(KD wt))),[3],-0.19
same,Kd,[3],0.24 nM
"D3H44 Fab heterodimer, H L124E_L143E_K145M / L Q124K_V133G_S176R_T178R",Change in KD with respect to wild type (-(log(KD design) - log(KD wt))),[3],-0.29
same,Kd,[3],0.31 nM
"D3H44 Fab heterodimer, H L124R_S186R / L V133G_S176D_T178E_T180E",Change in KD with respect to wild type (-(log(KD design) - log(KD wt))),[3],-0.15
same,Kd,[3],0.22 nM
H1L1 Fab heterodimer of LCCA set 9573 (D3H44 Fab; H: L143A_Q179K; L: Q124E_V133Y_T180E),Kd,[4],0.27 nM
same,"change in KD vs wild type, -(log(KD design)-log(KD wt))",[4],-0.23
H1L1 Fab heterodimer of LCCA set 9704 (D3H44 Fab; H: L143E_K145T_S188L; L: Q124R),Kd,[4],0.21 nM
same,"change in KD vs wild type, -(log(KD design)-log(KD wt))",[4],-0.12
H1L1 Fab heterodimer of LCCA set 9725 (D3H44 Fab; H: L143E_K145T_S188L; L: Q124R_Q160K_T178R),Kd,[4],0.24 nM
same,"change in KD vs wild type, -(log(KD design)-log(KD wt))",[4],-0.19
H1L1 Fab heterodimer of LCCA set 9732 (D3H44 Fab; H: L143K; L: Q124E_V133D_S176L),Kd,[4],0.28 nM
same,"change in KD vs wild type, -(log(KD design)-log(KD wt))",[4],-0.25
H1L1 Fab heterodimer of LCCA set 9734 (D3H44 Fab; H: L143K_D146G; L: Q124E_V133D),Kd,[4],0.26 nM
same,"change in KD vs wild type, -(log(KD design)-log(KD wt))",[4],-0.22
H1L1 Fab heterodimer of LCCA set 9737 (D3H44 Fab; H: L143R; L: Q124E_V133E),Kd,[4],0.2 nM
same,"change in KD vs wild type, -(log(KD design)-log(KD wt))",[4],-0.09
H1L1 Fab heterodimer of LCCA set 9743 (D3H44 Fab; H: L143R; L: Q124E_V133E_S176L),Kd,[4],0.28 nM
same,"change in KD vs wild type, -(log(KD design)-log(KD wt))",[4],-0.25
H1L1 Fab heterodimer of LCCA set 9906 (D3H44 Fab; H: S188G; L: S176L),Kd,[4],0.11 nM
same,"change in KD vs wild type, -(log(KD design)-log(KD wt))",[4],0.14
H1L1 Fab heterodimer of LCCA set 9911 (D3H44 Fab; H: S188L; L: WT),Kd,[4],0.09 nM
same,"change in KD vs wild type, -(log(KD design)-log(KD wt))",[4],0.27
H1L1 Fab heterodimer of LCCA set 9914 (D3H44 Fab; H: S188L_V190F; L: WT),Kd,[4],0.15 nM
same,"change in KD vs wild type, -(log(KD design)-log(KD wt))",[4],0.01
H1L1 Fab heterodimer of LCCA set 9917 (D3H44 Fab; H: S188L_V190Y; L: V133S),Kd,[4],0.1 nM
same,"change in KD vs wild type, -(log(KD design)-log(KD wt))",[4],0.2
H1L1 Fab heterodimer of LCCA set 9987 (D3H44 Fab; H: L143E_K145T; L: Q124R_T178R),Kd,[4],0.11 nM
same,"change in KD vs wild type, -(log(KD design)-log(KD wt))",[4],0.15
